Measured values reported in publication PMC10392983, “Allosteric activation or inhibition of PI3Kγ mediated through conformational changes in the p110γ helical domain” (eLife, 2023).
Several values for one entry are separate records, joined by “and”; a condition that tells them apart may be missing. Equal values may be shown once.

B1: Nanobody NB7-PIK3CG (VHH)
VHH: QVQLVESGGGLVQPGGSLRLSCAASGSIFSINAMGWYRQAPGKQRELVAHITSGGSTNYADSVKGRFTISRDNAKNTVYLQMNSLKPEDTAVYYCNEAGDPFLGSTWNGPPAFGSWGQGTQVTVSS
notes: the nanobody chain of PDB 8DP0 (deposited here); Expressed from a pMESy4 vector; also called His-NB7; nanobody 7; source: E. coli WK6 periplasm, purified (HisTrap, Superdex 75); not shown: His6, C-terminal, kept
B2: Nanobody NB7-PIK3CG (VHH)
VHH: B1 VHH
notes: Expressed from a pMESy4 vector; first described in Rathinaswamy et al., 2021b; also called His-NB7; nanobody 7; source: periplasm of WK6 E. coli, purified (HisTrap, Superdex 75); not shown: His6, C-terminal, kept

Experiments:
Details in all cases: both partners purified
p110γ-p84 complex = biological target: T1, p110γ-p84 complex (Homo sapiens p110γ; Mus musculus p84, UniProt P48736;Q3U6Q4); assay: BLI; His-tagged NB7 (500 nM) immobilised on Anti-Penta-His biosensor; PI3K complexes in solution (dose response 50-1.9 nM; class IA comparison at 50 nM); 600 s association, 1200 s dissociation; 20 mM Tris pH 8.5, 100 mM NaCl, 50 mM ammonium sulfate, 0.1% BSA, 0.02% Tween 20; global fit to a 1:1 model
T1 construct: Homo sapiens p110γ (PIK3CG), full-length; Mus musculus p84 regulatory subunit of PI3Kγ; The purification tag stood on p84 only; also called PI3Kγ p110γ-p84; not shown: His10, N-terminal, cleaved; 2x Strep, N-terminal, cleaved
T1 sequence (P48736 whole entry, chain 1 of 2): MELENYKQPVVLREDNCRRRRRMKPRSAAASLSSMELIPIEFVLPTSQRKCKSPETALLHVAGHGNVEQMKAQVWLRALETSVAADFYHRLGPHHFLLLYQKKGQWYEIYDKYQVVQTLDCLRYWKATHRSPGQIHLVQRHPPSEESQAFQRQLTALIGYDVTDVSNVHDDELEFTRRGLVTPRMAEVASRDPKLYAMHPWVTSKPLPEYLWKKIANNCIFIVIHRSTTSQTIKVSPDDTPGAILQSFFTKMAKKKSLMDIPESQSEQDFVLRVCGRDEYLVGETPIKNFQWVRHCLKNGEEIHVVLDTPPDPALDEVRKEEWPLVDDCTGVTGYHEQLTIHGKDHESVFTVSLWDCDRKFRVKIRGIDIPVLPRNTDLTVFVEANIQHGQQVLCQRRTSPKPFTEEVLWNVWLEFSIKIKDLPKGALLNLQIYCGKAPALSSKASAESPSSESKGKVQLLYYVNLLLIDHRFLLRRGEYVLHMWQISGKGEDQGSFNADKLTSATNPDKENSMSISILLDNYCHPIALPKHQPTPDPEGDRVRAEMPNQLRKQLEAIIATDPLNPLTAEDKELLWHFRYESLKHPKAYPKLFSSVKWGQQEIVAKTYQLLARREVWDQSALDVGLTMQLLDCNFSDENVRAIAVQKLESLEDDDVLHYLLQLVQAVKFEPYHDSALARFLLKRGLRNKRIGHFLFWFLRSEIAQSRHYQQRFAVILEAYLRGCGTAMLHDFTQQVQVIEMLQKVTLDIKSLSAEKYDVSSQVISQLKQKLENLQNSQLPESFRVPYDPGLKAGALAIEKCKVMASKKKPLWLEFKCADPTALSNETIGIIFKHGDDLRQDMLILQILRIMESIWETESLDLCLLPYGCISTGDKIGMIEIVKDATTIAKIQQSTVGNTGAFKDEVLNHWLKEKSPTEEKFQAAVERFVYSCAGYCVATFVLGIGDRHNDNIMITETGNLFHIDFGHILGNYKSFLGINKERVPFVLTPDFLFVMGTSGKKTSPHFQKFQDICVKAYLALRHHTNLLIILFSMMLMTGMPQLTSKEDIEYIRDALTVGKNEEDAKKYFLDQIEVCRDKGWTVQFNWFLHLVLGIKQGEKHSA
T1 sequence (Q3U6Q4 whole entry, chain 2 of 2): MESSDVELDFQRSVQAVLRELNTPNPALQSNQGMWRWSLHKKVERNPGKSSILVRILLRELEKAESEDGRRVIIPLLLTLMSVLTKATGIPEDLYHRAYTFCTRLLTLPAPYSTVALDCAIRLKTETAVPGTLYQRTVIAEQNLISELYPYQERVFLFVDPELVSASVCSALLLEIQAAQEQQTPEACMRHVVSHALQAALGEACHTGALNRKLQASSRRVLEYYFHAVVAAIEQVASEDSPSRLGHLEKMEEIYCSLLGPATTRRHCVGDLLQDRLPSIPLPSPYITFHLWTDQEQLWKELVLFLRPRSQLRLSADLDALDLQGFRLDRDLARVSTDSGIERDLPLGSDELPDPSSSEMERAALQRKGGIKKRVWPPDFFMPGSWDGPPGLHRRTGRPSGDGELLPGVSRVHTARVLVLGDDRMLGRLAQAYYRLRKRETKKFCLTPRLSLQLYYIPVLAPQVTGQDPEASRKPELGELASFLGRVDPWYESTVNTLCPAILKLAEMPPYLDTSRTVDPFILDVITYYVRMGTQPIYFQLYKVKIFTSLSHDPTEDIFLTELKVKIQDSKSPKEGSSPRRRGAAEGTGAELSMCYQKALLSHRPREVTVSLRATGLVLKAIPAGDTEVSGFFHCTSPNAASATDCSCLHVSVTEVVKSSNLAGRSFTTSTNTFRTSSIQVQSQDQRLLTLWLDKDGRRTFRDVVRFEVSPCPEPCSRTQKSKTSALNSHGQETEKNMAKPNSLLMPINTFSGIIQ

p110β-p85 complex = biological target: T2, p110β-p85 complex (Homo sapiens (assumed), UniProt P42338;O00459); assay: as above
T2 construct: p110β catalytic subunit of class IA PI3K; plasmid as previously described; p85 regulatory subunit; the legend says only p85; also called PI3Kβ

p110α-p85 complex = biological target: T3, p110α-p85 complex (Homo sapiens (assumed), UniProt P42336;O00459); assay: as above
T3 construct: p110α catalytic subunit of class IA PI3K; plasmid as previously described; p85 regulatory subunit; the legend says only p85; also called PI3Kα

p110δ-p85 complex = biological target: T4, p110δ-p85 complex (Homo sapiens (assumed), UniProt O00329;O00459); assay: as above
T4 construct: p110δ catalytic subunit of class IA PI3K; plasmid as previously described; p85 regulatory subunit; the legend says only p85; also called PI3Kδ

p110γ-p101 complex [1] = biological target: T5, p110γ-p101 complex (Homo sapiens p110γ; Sus scrofa p101, UniProt P48736;PDB); assay: as above
T5 construct: Homo sapiens p110γ (PIK3CG), full-length; Sus scrofa p101 regulatory subunit of PI3Kγ; The purification tag stood on p101 only; also called PI3Kγ p110γ-p101; not shown: His10, N-terminal, cleaved; 2x Strep, N-terminal, cleaved
T5 sequence (P48736 whole entry, chain 1 of 2): as the sequence (P48736 whole entry, chain 1 of 2) above
T5 sequence (O02696 whole entry, chain 2 of 2, further chain): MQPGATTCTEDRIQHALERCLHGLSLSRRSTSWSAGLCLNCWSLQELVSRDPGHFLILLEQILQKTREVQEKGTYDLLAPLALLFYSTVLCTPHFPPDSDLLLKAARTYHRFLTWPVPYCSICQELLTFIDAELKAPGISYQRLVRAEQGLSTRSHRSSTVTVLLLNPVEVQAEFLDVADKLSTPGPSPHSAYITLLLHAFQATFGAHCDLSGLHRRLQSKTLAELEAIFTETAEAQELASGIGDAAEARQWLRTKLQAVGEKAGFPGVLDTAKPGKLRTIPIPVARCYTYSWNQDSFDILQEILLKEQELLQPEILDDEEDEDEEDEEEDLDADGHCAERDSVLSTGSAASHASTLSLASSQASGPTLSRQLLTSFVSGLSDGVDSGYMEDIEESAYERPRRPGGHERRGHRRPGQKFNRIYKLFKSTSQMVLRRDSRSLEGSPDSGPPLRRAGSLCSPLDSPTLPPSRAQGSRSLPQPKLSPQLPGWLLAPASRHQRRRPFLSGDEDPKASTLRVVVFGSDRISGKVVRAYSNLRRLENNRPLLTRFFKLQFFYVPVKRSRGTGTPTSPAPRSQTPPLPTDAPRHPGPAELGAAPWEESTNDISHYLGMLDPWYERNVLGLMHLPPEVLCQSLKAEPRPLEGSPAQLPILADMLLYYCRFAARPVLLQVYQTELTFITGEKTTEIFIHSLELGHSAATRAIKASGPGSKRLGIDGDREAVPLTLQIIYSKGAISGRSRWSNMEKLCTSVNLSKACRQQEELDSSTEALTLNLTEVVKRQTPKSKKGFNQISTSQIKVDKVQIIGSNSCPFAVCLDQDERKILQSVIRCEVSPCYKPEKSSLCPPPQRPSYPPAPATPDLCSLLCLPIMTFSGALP

p110γ-p101 complex [2] = biological target: T6, p110γ-p101 complex (Homo sapiens p110γ; Sus scrofa p101, UniProt P48736;PDB); assay: BLI; His-NB7 (500 nM) immobilised on Anti-Penta-His (HIS1K) biosensor, dipped into p110γ, p110γ-p84 or p110γ-p101 (50-1.9 nM); association 600 s, dissociation 1200 s; Octet buffer 20 mM Tris pH 8.5, 100 mM NaCl, 50 mM ammonium sulfate, 0.1% BSA, 0.02% Tween 20; 1:1 model; the sheet gives one set of constants for each analyte concentration (column Conc. (nM))
T6 construct: p110γ, Homo sapiens, from plasmid pMultiBac-hsp110γ-ssp101; p101 regulatory subunit, Sus scrofa, from plasmid pMultiBac-hsp110γ-ssp101; The purification tag stood on the N-terminus of p101 and was removed by TEV protease; also called p110gp101; not shown: 10x histidine, N-terminal, cleaved; 2x strep, N-terminal, cleaved
T6 sequence (P48736 whole entry, chain 1 of 2): as the sequence (P48736 whole entry, chain 1 of 2) above
T6 sequence (O02696 whole entry, chain 2 of 2, further chain): as the sequence (O02696 whole entry, chain 2 of 2, further chain) above

| Binder | Kd (p110γ-p84 complex) | binding result (p110β-p85 complex) | binding result (p110α-p85 complex) | binding result (p110δ-p85 complex) | Kd (p110γ-p101 complex [1]) | kon (p110γ-p101 complex [2]) |
| --- | --- | --- | --- | --- | --- | --- |
| B1 | ~2 nM | no binding (tested: 50 nM) | no binding (tested: 50 nM) | no binding (tested: 50 nM) | ~2 nM | – |
| B2 | – | – | – | – | – | 105000 M⁻¹ s⁻¹ and 111000 M⁻¹ s⁻¹ and 50200 M⁻¹ s⁻¹ |
